Laboratory results published in article PMC3248863, “The acid-tolerant L-arabinose isomerase from the mesophilic Shewanella sp. ANA-3 is highly active at low temperatures” (Microbial Cell Factories, 2011).

Molecular target: the molecule itself
Experiment: SEC; size exclusion chromatography of the purified recombinant enzyme against protein markers of 669, 440, 232, 140 and 66 kDa; single peak of 230 kDa, compared with the 55 kDa band in reducing SDS-PAGE

B1: Shewanella sp. ANA-3 L-arabinose isomerase (enzyme, UniProt A0KWX7 1-500, looked up)
chain: MKAFKQKQVWFITGSQDLYGPKVLEQVAKNSEQIVHGFNESSAISIEVVYKPTVKSPREIHAVCQAANSDENCVGVILWMHTFSPAKMWIAGLNELSKPFMHLHTQFNAELPWSEINMNYMNTHQSAHGCREFGFIGTRMRKERKVVVGHWQSSDVQAQIDDWCRAAAGWHESQNLRIARFGDNMRQVAVTEGDKVAAQIQFGYEVHAYSLGELNEAIADIAEGDVTAQLDRYASEYQVGNELFGDEYQLDRLRKEAKIELGLTQFLTQGGFGAFTNCFENLTGMTGLPGLATQRLMANGFGYGGEGDWKTAAMVRIMKVMGQGRAGGTSFMEDYTYNFGATDQVLGAHMLEVCPSIAAAKPRLEVHRHTIGVRCDVPRLLFTGKAGPAINVSTIDLGNRFRIILNELDTVTPPQDLPNLPVASALWEPRPNLAVAAAAWIHAGGAHHSAYSQAITTDQIVDFAEMAGAELVIIDADTKIREFKNELRQNSVYYGLARGL
notes: L-arabinose isomerase (EC 5.3.1.4) of Shewanella sp; ANA-3, product of the araA gene amplified from chromosomal DNA; 500 amino-acid residues, calculated mass 55.3 kDa; Six histidines at the N-terminal end from pET-15b; also called L-AI; Shewanella sp; ANA-3 L-AI; source: E. coli BL21 (DE3) (pMR38, pET-15b), purified (ammonium sulphate precipitation, IMAC, size exclusion chromatography)
B1 was tested, and the “stoichiometry N” value was 4.
